The record followed here is paper PMC12232663, “Molecular contacts in self-assembling clusters of membrane proteins” (Proceedings of the National Academy of Sciences of the …, 2025).

This series deals with the molecule itself. In words: cryo-EM structure; single-particle reconstruction of purified channel reconstituted into POPC vesicles (protein:lipid 1:20, 10 mM Tris pH 8.0, 150 mM KCl); C4-symmetric map; monomers to tetramer.

B1: Human HCN1 with a C-terminal truncation (residues 636 to 865) (natural protein, UniProt O60741 1-890, looked up)
chain: MEGGGKPNSSSNSRDDGNSVFPAKASATGAGPAAAEKRLGTPPGGGGAGAKEHGNSVCFKVDGGGGGGGGGGGGEEPAGGFEDAEGPRRQYGFMQRQFTSMLQPGVNKFSLRMFGSQKAVEKEQERVKTAGFWIIHPYSDFRFYWDLIMLIMMVGNLVIIPVGITFFTEQTTTPWIIFNVASDTVFLLDLIMNFRTGTVNEDSSEIILDPKVIKMNYLKSWFVVDFISSIPVDYIFLIVEKGMDSEVYKTARALRIVRFTKILSLLRLLRLSRLIRYIHQWEEIFHMTYDLASAVVRIFNLIGMMLLLCHWDGCLQFLVPLLQDFPPDCWVSLNEMVNDSWGKQYSYALFKAMSHMLCIGYGAQAPVSMSDLWITMLSMIVGATCYAMFVGHATALIQSLDSSRRQYQEKYKQVEQYMSFHKLPADMRQKIHDYYEHRYQGKIFDEENILNELNDPLREEIVNFNCRKLVATMPLFANADPNFVTAMLSKLRFEVFQPGDYIIREGAVGKKMYFIQHGVAGVITKSSKEMKLTDGSYFGEICLLTKGRRTASVRADTYCRLYSLSVDNFNEVLEEYPMMRRAFETVAIDRLDRIGKKNSILLQKFQKDLNTGVFNNQENEILKQIVKHDREMVQAALPRESSSVLNTDPDAEKPRFASNL
notes: source: HEK293S GnTI- cells (BacMam), purified (GFP-nanobody resin, SEC in LMNG:CHS), reconstituted into POPC vesicles
As to B1, the “stoichiometry N” value worked out at 4.
